B1: Dynamin-binding protein, residues 242 to 304; numbered along this chain, Q6XZF7 (parent)
chain: EEPGTYGVALYRFQALEPNELDFEVGDKIRILATLEDGWLEGSLKGRTGIFPYRFVKLCPDTR

± gives the uncertainty stated by the source.

The data set covers variants of B1. As to the kind of experiment: abundance fitness (aPCA) (normalised: wild type 0, dead -1); higher = more abundant; growth selection in yeast, the domain comes from the species named. To be noted: Homo sapiens.
In the case of EEPGTYGVALYRFQALEPQELDFEVGDKIRILATLEDGWLEGSLKGRTGIFPYRFVKLCPDTR [N19Q], the abundance fitness is -0.188 ± 0.23. Under EEPGTYGVALYRFQALEPMELDFEVGDKIRILATLEDGWLEGSLKGRTGIFPYRFVKLCPDTR [N19M] stands -0.494 ± 0.31; under EEPGTYGVALYRFQALEPYELDFEVGDKIRILATLEDGWLEGSLKGRTGIFPYRFVKLCPDTR [N19Y], -0.299 ± 0.059; under EEPGTYGVALYRFQALEPGELDFEVGDKIRILATLEDGWLEGSLKGRTGIFPYRFVKLCPDTR [N19G], -0.055 ± 0.048.

As for EEPGTYGVALYRFQALEPIELDFEVGDKIRILATLEDGWLEGSLKGRTGIFPYRFVKLCPDTR [N19I], the abundance fitness is -0.644 ± 0.087. Take EEPGTYGVALYRFQALEPKELDFEVGDKIRILATLEDGWLEGSLKGRTGIFPYRFVKLCPDTR [N19K]: the abundance fitness is -0.227 ± 0.14. Consider EEPGTYGVALYRFQALEPCELDFEVGDKIRILATLEDGWLEGSLKGRTGIFPYRFVKLCPDTR [N19C], for which the abundance fitness was -0.518 ± 0.074.

EEPGTYGVALYRFQALEPPELDFEVGDKIRILATLEDGWLEGSLKGRTGIFPYRFVKLCPDTR [N19P]: the abundance fitness was -0.704 ± 0.15. As to EEPGTYGVALYRFQALESNELDFEVGDKIRILATLEDGWLEGSLKGRTGIFPYRFVKLCPDTR [P18S], the abundance fitness is -0.113 ± 0.05. Take EEPGTYGVALYRFQALEWNELDFEVGDKIRILATLEDGWLEGSLKGRTGIFPYRFVKLCPDTR [P18W]: the abundance fitness was -0.424 ± 0.11. With EEPGTYGVALYRFQALEDNELDFEVGDKIRILATLEDGWLEGSLKGRTGIFPYRFVKLCPDTR [P18D], the abundance fitness is -0.044 ± 0.059. To EEPGTYGVALYRFQALEMNELDFEVGDKIRILATLEDGWLEGSLKGRTGIFPYRFVKLCPDTR [P18M] belongs -0.419 ± 0.19. To EEPGTYGVALYRFQALETNELDFEVGDKIRILATLEDGWLEGSLKGRTGIFPYRFVKLCPDTR [P18T] belongs -0.333 ± 0.094; to EEPGTYGVALYRFQALEGNELDFEVGDKIRILATLEDGWLEGSLKGRTGIFPYRFVKLCPDTR [P18G], -0.492 ± 0.061. Under EEPGTYGVALYRFQALEQNELDFEVGDKIRILATLEDGWLEGSLKGRTGIFPYRFVKLCPDTR [P18Q] stands -0.042 ± 0.2; under EEPGTYGVALYRFQALEVNELDFEVGDKIRILATLEDGWLEGSLKGRTGIFPYRFVKLCPDTR [P18V], -0.332 ± 0.062. EEPGTYGVALYRFQALEFNELDFEVGDKIRILATLEDGWLEGSLKGRTGIFPYRFVKLCPDTR [P18F]: the abundance fitness is -0.659 ± 0.095. Under EEPGTYGVALYRFQALEYNELDFEVGDKIRILATLEDGWLEGSLKGRTGIFPYRFVKLCPDTR [P18Y] stands -0.473 ± 0.077; under EEPGTYGVALYRFQALEHNELDFEVGDKIRILATLEDGWLEGSLKGRTGIFPYRFVKLCPDTR [P18H], -0.291 ± 0.078. For EEPGTYGVALYRFQALELNELDFEVGDKIRILATLEDGWLEGSLKGRTGIFPYRFVKLCPDTR [P18L], the abundance fitness is -0.42 ± 0.075.

Turning to EEPGTYGVALYRFQALEKNELDFEVGDKIRILATLEDGWLEGSLKGRTGIFPYRFVKLCPDTR [P18K], the abundance fitness is -0.336 ± 0.17. Under EEPGTYGVALYRFQALEANELDFEVGDKIRILATLEDGWLEGSLKGRTGIFPYRFVKLCPDTR [P18A] stands -0.188 ± 0.063; under EEPGTYGVALYRFQALERNELDFEVGDKIRILATLEDGWLEGSLKGRTGIFPYRFVKLCPDTR [P18R], -0.04 ± 0.053; under EEPGTYGVALYRFQALECNELDFEVGDKIRILATLEDGWLEGSLKGRTGIFPYRFVKLCPDTR [P18C], -0.412 ± 0.061. To EEPGTYGVALYRFQALEENELDFEVGDKIRILATLEDGWLEGSLKGRTGIFPYRFVKLCPDTR [P18E] belongs -0.006 ± 0.13; to EEPGTYGVALYRFQALENNELDFEVGDKIRILATLEDGWLEGSLKGRTGIFPYRFVKLCPDTR [P18N], -0.275 ± 0.071. EEPGTYGVALYRFQALEPNALDFEVGDKIRILATLEDGWLEGSLKGRTGIFPYRFVKLCPDTR [E20A]: the abundance fitness is -0.163 ± 0.076. Under EEPGTYGVALYRFQALEPNPLDFEVGDKIRILATLEDGWLEGSLKGRTGIFPYRFVKLCPDTR [E20P] stands -1.03 ± 0.35; under EEPGTYGVALYRFQALEPNNLDFEVGDKIRILATLEDGWLEGSLKGRTGIFPYRFVKLCPDTR [E20N], -0.227 ± 0.071.

Regarding EEPGTYGVALYRFQALEPNMLDFEVGDKIRILATLEDGWLEGSLKGRTGIFPYRFVKLCPDTR [E20M], the abundance fitness is 0.023 ± 0.11. Under EEPGTYGVALYRFQALEPNDLDFEVGDKIRILATLEDGWLEGSLKGRTGIFPYRFVKLCPDTR [E20D] stands -0.631 ± 0.098. Under EEPGTYGVALYRFQALEPNFLDFEVGDKIRILATLEDGWLEGSLKGRTGIFPYRFVKLCPDTR [E20F] stands 0.155 ± 0.056.

As for EEPGTYGVALYRFQALEPNKLDFEVGDKIRILATLEDGWLEGSLKGRTGIFPYRFVKLCPDTR [E20K], the abundance fitness is -0.068 ± 0.11. In the case of EEPGTYGVALYRFQALEPNLLDFEVGDKIRILATLEDGWLEGSLKGRTGIFPYRFVKLCPDTR [E20L], the abundance fitness was -0.067 ± 0.056. To EEPGTYGVALYRFQALEPNILDFEVGDKIRILATLEDGWLEGSLKGRTGIFPYRFVKLCPDTR [E20I] belongs -0.65 ± 0.095; to EEPGTYGVALYRFQALEPNYLDFEVGDKIRILATLEDGWLEGSLKGRTGIFPYRFVKLCPDTR [E20Y], 0.059 ± 0.056.

As for EEPGTYGVALYRFQALEPNTLDFEVGDKIRILATLEDGWLEGSLKGRTGIFPYRFVKLCPDTR [E20T], the abundance fitness was found to be 0.06 ± 0.069.

As for EEPGTYGVALYRFQALEPNCLDFEVGDKIRILATLEDGWLEGSLKGRTGIFPYRFVKLCPDTR [E20C], the abundance fitness was -0.014 ± 0.05. To EEPGTYGVALYRFQALEPNVLDFEVGDKIRILATLEDGWLEGSLKGRTGIFPYRFVKLCPDTR [E20V] belongs -0.703 ± 0.086; to EEPGTYGVALYRFQALEPNGLDFEVGDKIRILATLEDGWLEGSLKGRTGIFPYRFVKLCPDTR [E20G], -0.246 ± 0.057; to EEPGTYGVALYRFQALEPNQLDFEVGDKIRILATLEDGWLEGSLKGRTGIFPYRFVKLCPDTR [E20Q], 0.069 ± 0.12. Under EEPGTYGVALYRFQALEPNSLDFEVGDKIRILATLEDGWLEGSLKGRTGIFPYRFVKLCPDTR [E20S] stands -0.468 ± 0.059; under EEPGTYGVALYRFQALEPNRLDFEVGDKIRILATLEDGWLEGSLKGRTGIFPYRFVKLCPDTR [E20R], -0.258 ± 0.062.

Source of the values: the Human Domainome abundance scans (Beltran et al. 2025).
